In US20190076400A1 (PROTAGONIST THERAPEUTICS, published 2019):
Square brackets hold non-standard residues; d marks the D form. NMeW = CN[C@@H](Cc1c[nH]c2ccccc12)C(=O)O; Dmt = Cc1cc(O)cc(C)c1C[C@H](N)C(=O)O; NMeY = CN[C@@H](Cc1ccc(O)cc1)C(=O)O; NMeCha = CN[C@@H](CC1CCCCC1)C(=O)O; NMeF = CN[C@@H](Cc1ccccc1)C(=O)O; NMeI = CC[C@H](C)[C@H](NC)C(=O)O; NMePhg = CN[C@H](C(=O)O)c1ccccc1; β3hF = N[C@H](CC(=O)O)Cc1ccccc1; NMeNle = CCCC[C@H](NC)C(=O)O; NMeNva = CCC[C@H](NC)C(=O)O; NMeV = CN[C@H](C(=O)O)C(C)C; NMeA = CN[C@@H](C)C(=O)O

B1: H-DMT-(D)Thr-G-bhF-N(Me)-Ile-OH (peptide)
peptide: H-[Dmt][dT]G[β3hF][NMeI]-OH
SMILES: CC[C@H](C)[C@@H](C(=O)O)N(C)C(=O)C[C@H](Cc1ccccc1)NC(=O)CNC(=O)[C@H](NC(=O)[C@@H](N)Cc1c(C)cc(O)cc1C)[C@H](C)O
B2: H-DMT-(D)Asp-G-bhF-N(Me)-Tyr-OH (peptide)
peptide: H-[Dmt][dD]G[β3hF][NMeY]-OH
SMILES: Cc1cc(O)cc(C)c1C[C@H](N)C(=O)N[C@H](CC(=O)O)C(=O)NCC(=O)N[C@H](CC(=O)N(C)[C@@H](Cc1ccc(O)cc1)C(=O)O)Cc1ccccc1
B3: H-DMT-(D)Asp-G-bhF-N(Me)-Phg-OH (peptide)
peptide: H-[Dmt][dD]G[β3hF][NMePhg]-OH
SMILES: Cc1cc(O)cc(C)c1C[C@H](N)C(=O)N[C@H](CC(=O)O)C(=O)NCC(=O)N[C@H](CC(=O)N(C)[C@H](C(=O)O)c1ccccc1)Cc1ccccc1
B4: H-DMT-(D)Asp-G-bhF-N(Me)-Trp-OH (peptide)
peptide: H-[Dmt][dD]G[β3hF][NMeW]-OH
SMILES: Cc1cc(O)cc(C)c1C[C@H](N)C(=O)N[C@H](CC(=O)O)C(=O)NCC(=O)N[C@H](CC(=O)N(C)[C@@H](Cc1c[nH]c2ccccc12)C(=O)O)Cc1ccccc1
B5: H-DMT-(D)Asp-G-bhF-N(Me)-Cha-OH (peptide)
peptide: H-[Dmt][dD]G[β3hF][NMeCha]-OH
SMILES: Cc1cc(O)cc(C)c1C[C@H](N)C(=O)N[C@H](CC(=O)O)C(=O)NCC(=O)N[C@H](CC(=O)N(C)[C@@H](CC1CCCCC1)C(=O)O)Cc1ccccc1
B6: H-DMT-(D)Asp-G-bhF-N(Me)-Nva-OH (peptide)
peptide: H-[Dmt][dD]G[β3hF][NMeNva]-OH
SMILES: CCC[C@@H](C(=O)O)N(C)C(=O)C[C@H](Cc1ccccc1)NC(=O)CNC(=O)[C@@H](CC(=O)O)NC(=O)[C@@H](N)Cc1c(C)cc(O)cc1C
B7: H-DMT-(D)Asp-G-bhF-N(Me)-Val-OH (peptide)
peptide: H-[Dmt][dD]G[β3hF][NMeV]-OH
SMILES: Cc1cc(O)cc(C)c1C[C@H](N)C(=O)N[C@H](CC(=O)O)C(=O)NCC(=O)N[C@H](CC(=O)N(C)[C@H](C(=O)O)C(C)C)Cc1ccccc1
B8: H-DMT-(D)Thr-G-bhF-N(Me)-Ala-OH (peptide)
peptide: H-[Dmt][dT]G[β3hF][NMeA]-OH
SMILES: Cc1cc(O)cc(C)c1C[C@H](N)C(=O)N[C@@H](C(=O)NCC(=O)N[C@H](CC(=O)N(C)[C@@H](C)C(=O)O)Cc1ccccc1)[C@H](C)O
B9: H-DMT-(D)Asp-G-bhF-N(Me)-Ile-OH (peptide)
peptide: H-[Dmt][dD]G[β3hF][NMeI]-OH
SMILES: CC[C@H](C)[C@@H](C(=O)O)N(C)C(=O)C[C@H](Cc1ccccc1)NC(=O)CNC(=O)[C@@H](CC(=O)O)NC(=O)[C@@H](N)Cc1c(C)cc(O)cc1C
B10: H-DMT-(D)Asp-G-bhF-Gly-NH2 (peptide)
peptide: H-[Dmt][dD]G[β3hF]G-NH2
SMILES: Cc1cc(O)cc(C)c1C[C@H](N)C(=O)N[C@H](CC(=O)O)C(=O)NCC(=O)N[C@H](CC(=O)NCC(N)=O)Cc1ccccc1
B11: H-DMT-(D)Asp-G-bhF-N(Me)-Phe-OH (peptide)
peptide: H-[Dmt][dD]G[β3hF][NMeF]-OH
SMILES: Cc1cc(O)cc(C)c1C[C@H](N)C(=O)N[C@H](CC(=O)O)C(=O)NCC(=O)N[C@H](CC(=O)N(C)[C@@H](Cc1ccccc1)C(=O)O)Cc1ccccc1

How the values were obtained:
[1] = target: µ-opioid receptor (MOR), Human-ORPM1 (human, UniProt P35372 1-400); test: cell-based or functional assay
[2] = target: δ-opioid receptor (DOR), Human-ORPD1 (human, UniProt P41143 1-372); test: cell-based or functional assay
Chain of δ-opioid receptor (DOR), Human-ORPD1 (P41143 whole entry, stated change not applied): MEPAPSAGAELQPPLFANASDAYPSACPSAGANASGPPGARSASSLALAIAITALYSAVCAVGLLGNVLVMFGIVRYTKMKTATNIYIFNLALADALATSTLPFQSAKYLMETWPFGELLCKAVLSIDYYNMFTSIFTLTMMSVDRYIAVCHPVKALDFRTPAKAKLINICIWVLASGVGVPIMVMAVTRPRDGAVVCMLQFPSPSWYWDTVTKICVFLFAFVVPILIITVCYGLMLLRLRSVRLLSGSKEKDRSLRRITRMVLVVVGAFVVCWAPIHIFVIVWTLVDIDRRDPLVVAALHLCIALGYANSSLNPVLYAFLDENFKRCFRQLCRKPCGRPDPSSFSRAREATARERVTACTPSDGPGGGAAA

Chain of µ-opioid receptor (MOR), Human-ORPM1 (P35372 whole entry): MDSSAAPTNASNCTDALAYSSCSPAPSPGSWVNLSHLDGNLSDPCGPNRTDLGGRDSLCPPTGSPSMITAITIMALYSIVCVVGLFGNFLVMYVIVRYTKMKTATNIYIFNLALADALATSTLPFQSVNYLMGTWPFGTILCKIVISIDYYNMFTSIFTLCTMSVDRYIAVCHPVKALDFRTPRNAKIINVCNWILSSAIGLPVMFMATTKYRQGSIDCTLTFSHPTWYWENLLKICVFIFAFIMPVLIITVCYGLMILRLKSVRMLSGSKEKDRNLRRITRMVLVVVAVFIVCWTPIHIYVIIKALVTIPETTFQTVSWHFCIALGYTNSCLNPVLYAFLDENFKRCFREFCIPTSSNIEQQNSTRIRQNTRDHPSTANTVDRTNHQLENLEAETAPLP

Binder | MOR EC50 [1] [nM] | DOR EC50 [2] [nM]
B1 | ≤ 1 | ≤ 1
B2 | ≤ 1 | ≤ 1
B3 | ≤ 1 | ≤ 1
B4 | ≤ 1 | ≤ 1
B5 | ≤ 1 | ≤ 1
B6 | ≤ 1 | ≤ 1
B7 | ≤ 1 | ≤ 1
B8 | ≤ 1 | ≤ 1
B9 | ≤ 1 | ≤ 1
B10 | ≤ 1 | ≤ 1
B11 | ≤ 1 | ≤ 1
H-[Dmt][dD]G[β3hF][NMeNle]-OH [H-DMT-(D)Asp-G-bhF-N(Me)-Nle-OH] | ≤ 1 | ≤ 1
